Columns and labels:
[1] = biological target: actin (rabbit fast twitch skeletal muscle), reconstituted as actin filament in gelsolin-extracted bovine myocardium (rabbit) (UniProt P68135)
[2] = biological target: actin (rabbit fast twitch skeletal muscle), reconstituted as actin filament in gelsolin-extracted bovine myocardium (rabbit) (UniProt P68135); remark: listed apart in the source

“myosin of bovine myocardium (thick filament, cross-bridges) (from UniProt Q9BE39 1-1935) (complex)” was tested, and the Rigor stiffness (100 Hz, 25°C), fibres reconstituted with nfTm and Tn [1] was 166 T ac, the Rigor stiffness (100 Hz, 25°C), fibres reconstituted with ∆2Tm and Tn [1] was 201 T ac and the Rigor stiffness (100 Hz, 25°C), fibres reconstituted with ∆3Tm and Tn [1] was 249 T ac. It also gave a Tension (T m), steady-state active tension in the standard activating solution at 25°C, fibres reconstituted with nfTm and Tn [1] of 1.51 T ac, a Tension (T m), steady-state active tension in the standard activating solution at 25°C, fibres reconstituted with ∆2Tm and Tn [1] of 1.65 T ac and a Tension (T m), steady-state active tension in the standard activating solution at 25°C, fibres reconstituted with ∆3Tm and Tn [1] of 0.91 T ac. It also gave a Stiffness at pCa 7 (25°C), fibres reconstituted with acetyl Tm (from bovine myocardium) and Tn [2] of 0.038 T ac, a Stiffness at pCa 7 (25°C), fibres reconstituted with nfTm and Tn [2] of 0.044 T ac and a Stiffness at pCa 7 (25°C), fibres reconstituted with ∆2Tm and Tn [2] of 0.039 T ac. It also gave a Stiffness at pCa 7 (25°C), fibres reconstituted with ∆3Tm and Tn [2] of 0.04 T ac, a Tension at pCa 7 (25°C), fibres reconstituted with acetyl Tm (from bovine myocardium) and Tn [2] of 0.168 T ac and a Tension at pCa 7 (25°C), fibres reconstituted with nfTm and Tn [2] of 0.065 T ac. It also gave a Tension at pCa 7 (25°C), fibres reconstituted with ∆2Tm and Tn [2] of 0.109 T ac and a Tension at pCa 7 (25°C), fibres reconstituted with ∆3Tm and Tn [2] of 0.196 T ac.

Source: PMC2814127
